Reference: patent publication US20260116991A1 (HAINAN SIMCERE ZAIMING PHARMACEUTICAL, published 2026)

B1: hAb007LH1L1d (antibody, human IgG1, V domains shown)
VH: EVQLVQSGAEVKKPGSSVKVSCKASGYTFSDYEMHWVRQAPGQGLEWMGTIDPETGNTAYNQKFKGRVTITADKSTSTAYMELSSLRSEDTAVYYCTRPYSLTYWGQGTLVTVSS
VL: DIVMTQTPLSLPVTPGEPASISCRSSQSFVHSNSDTYLQWYLQKPGQSPQLLIYKVSNRFSGVPDRFSGSGSGTDFTLKISRVEAEDVGVYYCFQGSHVPYTFGQGTKLEIK
notes: Humanized F3.81.19; VH H1 + VL L1d; expressed as human IgG1
B2: hAb007LH1L1e (antibody, human IgG1, V domains shown)
VH: EVQLVQSGAEVKKPGSSVKVSCKASGYTFSDYEMHWVRQAPGQGLEWMGTIDPETGNTAYNQKFKGRVTITADKSTSTAYMELSSLRSEDTAVYYCTRPYSLTYWGQGTLVTVSS
VL: DIVMTQTPLSLPVTPGEPASISCRSSQSFVHSNVDTYLQWYLQKPGQSPQLLIYKVSNRFSGVPDRFSGSGSGTDFTLKISRVEAEDVGVYYCFQGSHVPYTFGQGTKLEIK
notes: Humanized F3.81.19; VH H1 + VL L1e; expressed as human IgG1
B3: hAb007LH2L1b (antibody, human IgG1, V domains shown)
VH: EVQLVQSGAEVKKPGSSVKVSCKASGYTFTDYEMHWVRQAPGQGLEWMGTIDPETGNTAYNQKFKGRVTITADKSTSTAYMELSSLRSEDTAVYYCTRPYSLTYWGQGTLVTVSS
VL: DIVMTQTPLSLPVTPGEPASISCRSSQSFVHSNRDTYLQWYLQKPGQSPQLLIYKVSNRFSGVPDRFSGSGSGTDFTLKISRVEAEDVGVYYCFQGSHVPYTFGQGTKLEIK
notes: Humanized F3.81.19; VH H2 + VL L1b; expressed as human IgG1
B4: hAb007LH3L1 (antibody, human IgG1, V domains shown)
VH: EVQLVQSGAEVKKPGSSVKVSCKASGYTFTDYEMHWVRQAPGQGLEWMGTIDPETGNTAYNQKFKGRVTLTADKSTSTAYMELSSLRSEDTAVYYCTRPYSLTYWGQGTLVTVSS
VL: DIVMTQTPLSLPVTPGEPASISCRSSQSFVHSNGDTYLQWYLQKPGQSPQLLIYKVSNRFSGVPDRFSGSGSGTDFTLKISRVEAEDVGVYYCFQGSHVPYTFGQGTKLEIK
notes: Humanized F3.81.19; VH H3 + VL L1; expressed as human IgG1
B5: hAb007LH3L1b (antibody, human IgG1, V domains shown)
VH: EVQLVQSGAEVKKPGSSVKVSCKASGYTFTDYEMHWVRQAPGQGLEWMGTIDPETGNTAYNQKFKGRVTLTADKSTSTAYMELSSLRSEDTAVYYCTRPYSLTYWGQGTLVTVSS
VL: DIVMTQTPLSLPVTPGEPASISCRSSQSFVHSNRDTYLQWYLQKPGQSPQLLIYKVSNRFSGVPDRFSGSGSGTDFTLKISRVEAEDVGVYYCFQGSHVPYTFGQGTKLEIK
notes: Humanized F3.81.19; VH H3 + VL L1b; expressed as human IgG1
B6: hAb003LH3L1a (antibody, human IgG1, V domains shown)
VH: EVQLVQSGAEVKKPGSSVKVSCKASGYRFTDYEMHWVRQAPGQGLEWMGTIDPETGNTAYTQKFMDRVTLTADKSTSTAYMELSSLRSEDTAVYYCTRGYSFTYWGQGTLVTVSS
VL: DIVMTQTPLSLPVTPGEPASISCRSSQNIVHSDGNTYLQWYLQKPGQSPQLLIFKVSNRFSGVPDRFSGSGSGTDFTLKISRVEAEDVGVYYCFQGSHVPFTFGQGTKLEIK
notes: Humanized F2.154.1; VH H3 + VL L1a; expressed as human IgG1
B7: hAb003LH3L1b (antibody, human IgG1, V domains shown)
VH: EVQLVQSGAEVKKPGSSVKVSCKASGYRFTDYEMHWVRQAPGQGLEWMGTIDPETGNTAYTQKFMDRVTLTADKSTSTAYMELSSLRSEDTAVYYCTRGYSFTYWGQGTLVTVSS
VL: DIVMTQTPLSLPVTPGEPASISCRSSQNIVHSNRNTYLQWYLQKPGQSPQLLIFKVSNRFSGVPDRFSGSGSGTDFTLKISRVEAEDVGVYYCFQGSHVPFTFGQGTKLEIK
notes: Humanized F2.154.1; VH H3 + VL L1b; expressed as human IgG1
B8: hAb005LH2L1 (antibody, human IgG1, V domains shown)
VH: EVQLVQSGAEVKKPGASVKVSCKASGYTFTDYEMHWVRQAPGQGLEWMGAIDPETGNTAYIQKFKGRVTLTTDKSTSTAYMELRSLRSDDTAVYYCTRFYSYSHWGQGTTVTVSS
VL: DIVMTQTPLSLPVTPGEPASISCRSSQSLVHSNGNTYLHWYLQKPGQSPQLLIYKVSNRFSGVPDRFSGSGSGTDFTLKISRVEAEDVGVYYCSQNTHVPPTFGGGTKVEIK
notes: Humanized F3.54.12; VH H2 + VL L1; expressed as human IgG1
B9: hAb005LH1L1 (antibody, human IgG1, V domains shown)
VH: EVQLVQSGAEVKKPGASVKVSCKASGYTFTDYEMHWVRQAPGQGLEWMGAIDPETGNTAYIQKFKGRVTMTTDKSTSTAYMELRSLRSDDTAVYYCTRFYSYSHWGQGTTVTVSS
VL: DIVMTQTPLSLPVTPGEPASISCRSSQSLVHSNGNTYLHWYLQKPGQSPQLLIYKVSNRFSGVPDRFSGSGSGTDFTLKISRVEAEDVGVYYCSQNTHVPPTFGGGTKVEIK
notes: Humanized F3.54.12; VH H1 + VL L1; expressed as human IgG1
B10: hAb005LH1L1a (antibody, human IgG1, V domains shown)
VH: EVQLVQSGAEVKKPGASVKVSCKASGYTFTDYEMHWVRQAPGQGLEWMGAIDPETGNTAYIQKFKGRVTMTTDKSTSTAYMELRSLRSDDTAVYYCTRFYSYSHWGQGTTVTVSS
VL: DIVMTQTPLSLPVTPGEPASISCRSSQSLVHSDGNTYLHWYLQKPGQSPQLLIYKVSNRFSGVPDRFSGSGSGTDFTLKISRVEAEDVGVYYCSQNTHVPPTFGGGTKVEIK
notes: Humanized F3.54.12; VH H1 + VL L1a; expressed as human IgG1
B11: hAb005LH1L1b (antibody, human IgG1, V domains shown)
VH: EVQLVQSGAEVKKPGASVKVSCKASGYTFTDYEMHWVRQAPGQGLEWMGAIDPETGNTAYIQKFKGRVTMTTDKSTSTAYMELRSLRSDDTAVYYCTRFYSYSHWGQGTTVTVSS
VL: DIVMTQTPLSLPVTPGEPASISCRSSQSLVHSNRNTYLHWYLQKPGQSPQLLIYKVSNRFSGVPDRFSGSGSGTDFTLKISRVEAEDVGVYYCSQNTHVPPTFGGGTKVEIK
notes: Humanized F3.54.12; VH H1 + VL L1b; expressed as human IgG1
B12: hAb005LH2L1a (antibody, human IgG1, V domains shown)
VH: EVQLVQSGAEVKKPGASVKVSCKASGYTFTDYEMHWVRQAPGQGLEWMGAIDPETGNTAYIQKFKGRVTLTTDKSTSTAYMELRSLRSDDTAVYYCTRFYSYSHWGQGTTVTVSS
VL: DIVMTQTPLSLPVTPGEPASISCRSSQSLVHSDGNTYLHWYLQKPGQSPQLLIYKVSNRFSGVPDRFSGSGSGTDFTLKISRVEAEDVGVYYCSQNTHVPPTFGGGTKVEIK
notes: Humanized F3.54.12; VH H2 + VL L1a; expressed as human IgG1
B13: hAb005LH2L1b (antibody, human IgG1, V domains shown)
VH: EVQLVQSGAEVKKPGASVKVSCKASGYTFTDYEMHWVRQAPGQGLEWMGAIDPETGNTAYIQKFKGRVTLTTDKSTSTAYMELRSLRSDDTAVYYCTRFYSYSHWGQGTTVTVSS
VL: DIVMTQTPLSLPVTPGEPASISCRSSQSLVHSNRNTYLHWYLQKPGQSPQLLIYKVSNRFSGVPDRFSGSGSGTDFTLKISRVEAEDVGVYYCSQNTHVPPTFGGGTKVEIK
notes: Humanized F3.54.12; VH H2 + VL L1b; expressed as human IgG1

Tests used:
[1] = biological target: T1, human GPC3 on CHO-K1-human GPC3 cells (CHOK1-hGPC3.2B5) (human, UniProt P51654 25-554); assay: FACS, CHOK1-hGPC3.2B5 cells;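 further: flow cytometry of humanized antibodies binding to the cells over one hour in the cold, read as cell mean fluorescence intensity, with EC50 obtained by curve fitting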
T1 construct: whole, on cells
Method: The desired cells were expanded to a logarithmic growth phase in a T-75 cell culture flask, the medium was removed by pipetting, and the cells were washed twice with a PBS buffer, and digested with trypsin. Then a complete medium was added to stop the digestion, and the cells were blown into a single cell suspension. After counting, the cells were centrifuged, and the cell pellet was resuspended with an FACS buffer (PBS+2% fetal bovine serum) to 2×10⁶ cells/mL. The cell resuspension solution was added to a 96-well FACS reaction plate at 50 μl/well, and a humanized antibody sample to be tested was added at 50 μl/well for incubation at 4° C. for 1 h. […] After the plate was centrifuged and washed 3 times with a PBS buffer, 100 μl of the resulting solution was assayed and analyzed by FACS (FACS Canto™, purchased from BD Biosciences). Data analysis was performed by software (FlowJo) to obtain the mean fluorescence intensity (MFI) of the cells. Then, analysis was performed by software (GraphPad Prism8), data were fitted, and EC₅₀ values were calculated.

[2] = biological target: biotinylated labeled human GPC3 protein (produced in-house) (human, UniProt P51654 25-559, limits assumed, biotinylated (Dojindo, Cat. No. LK03); sites not stated); assay: ELISA, biotinylated human GPC3 protein

Binder	EC50 [1] [nM]	Max MFI [1] [MFI]	OD450 at 0.0004 nM [2] [OD450]	OD450 at 0.002 nM [2] [OD450]	OD450 at 0.011 nM [2] [OD450]	OD450 at 0.056 nM [2] [OD450]	OD450 at 0.28 nM [2] [OD450]	OD450 at 1.39 nM [2] [OD450]	OD450 at 6.94 nM [2] [OD450]	OD450 at 34.72 nM [2] [OD450]	OD450 at 0.0008 nM [2] [OD450]	OD450 at 0.004 nM [2] [OD450]	OD450 at 0.02 nM [2] [OD450]	OD450 at 0.11 nM [2] [OD450]	OD450 at 0.53 nM [2] [OD450]	OD450 at 2.67 nM [2] [OD450]	OD450 at 13.33 nM [2] [OD450]	OD450 at 66.66 nM [2] [OD450]
B1	6.28	18200	0.059	0.057	0.101	0.16	0.503	1.1	1.34	1.31								
B2	10.4	15000	0.049	0.05	0.058	0.104	0.248	0.732	1.17	0.921								
B3	6.16	6040									0.099	0.133	0.297	0.924	1.84	2.2	2.33	2.25
B4	6.98	6760									0.097	0.133	0.323	0.959	1.78	2.11	2.16	2.19
B5	7.33	6240									0.088	0.112	0.225	0.784	1.8	2.21	2.25	2.29
B6	6.02	2240									0.086	0.128	0.423	1.3	2.04	2.13	2.15	2.48
B7	0.647	4980									0.157	0.381	1.08	2	2.54	2.44	2.59	2.61
B8	0.736	4540									0.083	0.185	0.464	0.812	1.01	1.12	1.12	1.16
B9	0.563	4500									0.078	0.202	0.442	0.84	1.1	1.17	1.1	1.17
B10	315	122									0.053	0.05	0.051	0.057	0.056	0.113	0.208	0.558
B11	0.491	4610									0.075	0.172	0.45	0.812	1.04	1.16	1.04	1.13
B12	118	153									0.049	0.049	0.053	0.048	0.066	0.148	0.249	0.589
B13	0.54	4770									0.074	0.194	0.43	0.856	1.05	1.04	1.07	1.16
